From the supplement of paper PMC9170038

These sequences were tested on MS2 coat protein (assay: apparent KD of MS2 coat protein, switch ON state; designed switch direction (-1 OFF switch, 1 ON switch): 1; higher = weaker reporter binding). Conditions: FMN input: 0 or 200 uM; Eterna round: R93 (includes R88 designs).
Procedure, shortened: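 On-chip transcription from Illumina sequencing clusters produced the designed RNA switches. These were titrated with SNAP-549-labelled MS2 coat protein (twofold steps, 0.7 or 1.5 nM to 3 µM) in 100 mM Tris-HCl pH 7.5, 80 mM KCl, 4 mM MgCl2, with or without constant ligand. The apparent KD given is the per-design median of normalised cluster binding-curve fits.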

Point of comparison: “AAUAACUAUAGCAAGGAUAUCCGAAACAAGACAUGAGGAUCACCCAUGUAAUAAGACAAAAUAUAGGAGAAGGUGCAGGGUGAAA [JR_SS002_Sub010]”, “apparent KD of MS2 coat protein” value 75.3 nM. Against it:
- AUAUAUAUAAGGUAGGAUAUCCAAAAAUAAACAUGAGGAUCACCCAUGUCCAUAAAGAAUAAAUGGGAGAAGGACCAUAUAUAUA [viburnum 9] — 2.6-fold lower, 28.5 nM
- AGAUCUAGAAGGUAGGAUAUGUGAAAAAAAACAUGAGGAUCACCCAUGUGAUGAAUAAAAAGAAAAUAGAAGGACCAUCUAGAUC [Cross swing 1] — 4.7-fold lower, 16 nM
- ACAAACAAAAAAGAGGAUAUCCUAAACAAAACAUGAGGAUCACCCAUGUAAAAAAAAAUAAAAUGGGAGAAGGCUUACAACAAAC [SS2 M 23] — within 1.5-fold, 68 nM
- AAGAAACAUGAGGAUCACCCAUGUAAGAUAAACACAGGAUAUGCGAAUAAAAUAAAUAAAGCAGAAGGGUGAAGAA [Mat - Same State 1 - Tesla mod - D150] — 4.4-fold lower, 17.1 nM
- AUAAAGAAAACACAGGAUAUCCAAAAGAAAACAUGAGGAUCACCCAUGUAAAGAAAAUAAAAAUGGGAGAAGGGUGAAAGAAAUA [Mat - Same State 2 - JL mod - D40] — 2.2-fold lower, 34.8 nM
- AAGAAACAUGAGGAUCACCCAUGUGAGAUAAACACAGGAUAUGCGAAAAUAAAUAAAUAAGCAGAAGGGUGAAGAA [Mat - Same State 1 - Tesla mod - 69] — 2.5-fold lower, 30.2 nM
- AUGAAUAGAAUCGAGGAUAUCCAGUCAUGAACAUGAGGAUCACCCAUGUAAGAGAGAGUAUAAUGGGAGAAGGCGAGUAAUAGAU [JR_SS002_Sub1702] — 2.8-fold lower, 27 nM
- AGAAAACAUGAGGAUCACCCAUGUAGAAACAUGGGAGGAUAUACAAAGACGAAAGUCAAAGUAGAAGGCCUAAAAA [Mat - Same State 1 - Mod - D163] — within 1.5-fold, 75.7 nM
- GGGAGACAUGAGGAUCACCCAUGUGAGAAGAGGCGAGGAUAUCGAAAGAAAGAAGAGAAACGAGAAGGCGCGAGCU [salish99-SS1-056] — 2.7-fold lower, 28.1 nM
- UAGAGAACAGGGUAGGAUAUGCAUGGUCGUACAUGAGGAUCACCCAUGUAGUCUAGAAAAUAAAUGCAGAAGGACCAAAAGAAAA [Edsodiin] — 4.8-fold lower, 15.6 nM
- AAUACCACUAGCAAGGAUAUCUAAAACGAAACAUGAGGAUCACCCAUGUGACGACCACACGUAUCAGAGAAGGUGCAGGGUGAAU [JR_SS002_Sub306] — 3.1-fold lower, 24.2 nM
- AAUAAGACUAGCAAGGAUAUCUAAAACGAAACAUGAGGAUCACCCAUGUAACGAGUACACGUAUCAGAGAAGGUGCAGGGUGAAA [JR_SS002_Sub305] — 2.1-fold lower, 36.1 nM
- UAAUAAUAAACCAAGGAUAUGGAGUAAAGAACAUGAGGAUCACCCAUGUGUAGCGUGGAAUAGUACCAGAAGGUGGAGUGAAAUG [JR_SS002_Sub1003] — within 1.5-fold, 54.1 nM
- UAUAAACAUGAGGAUCACCCAUGUAGAAAUAUGGGAGGAUAUACGAAGACGAAAGUCAAAGUAGAAGGCCUAAUAU [Mat - Same State 1 - Eli mod - D113] — 4.5-fold lower, 16.9 nM
- AGCGAACAUGAGGAUCACCCAUGUGAAAAACAUAGAGGAUAUGUCGCAUGCGUGUAAAAGACAGAAGGCUAUCGCG [Mat - Mod of Nando] — 3.1-fold lower, 24 nM
- GAAGACAUAGUAUAGGAUAUAUGAAUAAUUACAUGAGGAUCACCCAUGUGCAUUUAUAUGCGAACAUAGAAGGGUGGUAGUUGUC [Mat - Same state - Malcolm Mod - D129] — 8.4-fold higher, 633 nM
- AGAAGACAUGAGGAUCACCCAUGUGGGAUUAUGGGAGGAUAUACAAAGACGAGAGUCAGAGUAGAAGGCCUAGGAU [salish99-ss1-113(!)] — 3-fold lower, 24.7 nM
- AGAAAACAUGAGGAUCACCCAUGUGACAAUAUGGGAGGAUAUACCAAGACGAAAGUCGAAGUAGAAGGCCUAAAGA [Garnet 51] — 3.3-fold lower, 22.9 nM
- CUGGACGUAGGAUAGGAUAUAUGAAUAAUUACAUGAGGAUCACCCAUGUCCAUUUAUAUGGGAACAUAGAAGGGUUGUGGUUAAG [Mat - Same state - Malcolm Mod - D145] — 2.1-fold higher, 160 nM
- AAGAAACAUGAGGAUCACCCAUGUAAAUUCAAGAGAGGAUAUCGUACAUGGAAGAUUCAACGAGAAGGCUCUAGAA [Pariah 3 (MS2 Riboswitches - Same State 1)] — 3.9-fold lower, 19.3 nM
- AAGAGACAUGAGGAUCACCCAUGUAGGAUUAUGGGAGGAUAUACAAAGACGAGAGUCAGAGUAGAAGGCCUAGGAC [salish99-ss1-132(!)] — 3.9-fold lower, 19.3 nM
- CGAAGACAUGAGGAUCACCCAUGUGGGAAUAUGGGAGGAUAUACAAAGACGAGAGUCAGAGUAGAAGGCCUAGGAC [salish99-ss1-108] — 2.8-fold lower, 26.5 nM
- AAAGACAUAGUUCAGGAUAUGGUAAUAGUCACAUGAGGAUCACCCAUGUGCAUUUAUAUGCGCGAUCAGAAGGGAGGUAGAUAAA [SameState2 Malc#17] — 3-fold lower, 24.9 nM
- CAUCAUGCGCCUAAGGAUAUGUCUCACAAGACAUGAGGAUCACCCAUGUAGAAUAAAUAAAUGAUGCAGAAGGUGGAGCACAUGC [Leedanla] — 4.9-fold higher, 372 nM
- AUAAAACAUGAGGAUCACCCAUGUAGACACAUGGGAGGAUAUACUAGAUCGAAAGAUCUAGUAGAAGGCCUUUGUA [Mat - Same State 1 - JL mod - D93] — 1.7-fold higher, 131 nM
- AAAUAUAAAGACUAGGAUAUACUAAAAUAAACAUGAGGAUCACCCAUGUAAAAAAUAAAACUCAUGUAGAAGGAGUAAAUAUAAA [ss2 10th] — 5.6-fold lower, 13.5 nM
- AGGAAACAUGAGGAUCACCCAUGUAAAAAAUAUGGAGGAUAUGCUAGAAGAAACAAAAUAGCAGAAGGCCAAAAAA [75%, Ex sub1, 23] — 5.5-fold lower, 13.7 nM
- AAAAGACAUGAGGAUCACCCAUGUCAAAACGUAGGAGGAUAUGUCGUGAAAAAAGACUUGACAGAAGGCCUGUGUC [SS1 - 36] — 4.8-fold lower, 15.8 nM
- AUAAAAGAAGCGAAGGAUAUCCAAAACCUAACAUGAGGAUCACCCAUGUAAAGAAAGAAAAAAUGGGAGAAGGUCGCAAAGAAUA [73%, More Fisker Same State 2, D3, 9] — 6.3-fold lower, 11.9 nM
- GAAAAACAUGAGGAUCACCCAUGUAGAAAUAUGGGAGGAUAUACAAAGACGAAAGUCAAGGUAGAAGGCCUAAAAG [Mat - Same State 1 - Eli mod - 25] — 2-fold lower, 37.5 nM
- GAAAAACAUGAGGAUCACCCAUGUGAGAUAAACACAGGAUAUGCGAAAAUAAACAAAUAAGCAGAAGGGUGAAAAG [Mat - Same State 1 - Tesla mod - 80] — 2.8-fold lower, 27.1 nM
- UCCUUACAUGAGGAUCACCCAUGUCGCAGGAAUCAAGGAUAUGGGACCGCAAUGCGGAAACCAGAAGGUGACAAAA [Zaesor] — 2.1-fold higher, 158 nM
- AAUAUAUUAAGUGAGGAUAUCGAGGAAAAAACAUGAGGAUCACCCAUGUGGGAAACAUGGUCGGGUGAGAAGGCACUUAAUAUAU [Samwise Clockwise 25 - Jieux - Same State 2] — 1.7-fold higher, 125 nM
- AAAUAAAUGACUGAGGAUAUAUCGAUGAAAACAUGAGGAUCACCCAUGUGAUAAUAAAAAGGGUGAUAGAAGGUAGUCAACAAAC [Mod 11 of Pariah 4 by Hyphema in Round 1] — within 1.5-fold, 52.1 nM
- AAAAAACAUGAGGAUCACCCAUGUGACAACAUGGGAGGAUAUACAAAGACGAGAGUCGAAGUAGAAGGCCUAAAAA [Garnet 77] — within 1.5-fold, 66.1 nM
- AAAUAAAUGACUCAGGAUAUGUCAGAGAAAACAUGAGGAUCACCCAUGUAAUAAUAACAUGUGUGACAGAAGGGAGUCAAUAAAU [LROPPY Same State 2 - v01_deltaG=.6] — 2.8-fold lower, 27.2 nM
- AGAAAUAAAAGAGAGGAUAUCCAAAAAGGGACAUGAGGAUCACCCAUGUAAAAGAAAAUAAAAUGGGAGAAGGCUCAAAAUAAAG [80%, More Helter Skelter 2] — within 1.5-fold, 97.3 nM
- CAGAGACAUGAGGAUCACCCAUGUAGGAUUAUGGGAGGAUAUACAAAGACGAGAGUCAGAGUAGAAGGCCUAGGAG [salish99-ss1-143] — 3.1-fold lower, 24 nM
- UAACAGCACAGGUAGGAUAUGUAGGGUGGUACAUGAGGAUCACCCAUGUAUCCACCCUUCGAAAGGCAGAAGGGCCUGUCGCUAC [Velabibe] — 5.2-fold lower, 14.6 nM
- AAAAGACAUGAGGAUCACCCAUGUCAAAACGUAGGAGGAUAUGUAUGGAAACCAUACUGUACAGAAGGCCUUUGUC [SS1 - 77] — 5.4-fold lower, 14 nM
- AAGGCACAUGAGGAUCACCCAUGUUAGCCGCGACGAGGAUAUGGGAACGCGUCAGCGGAAUUAGAAGGUGUGGUGA [Qusoquan] — 2.1-fold lower, 35.6 nM
